Measured values published in patent publication US20260167699A1 (Chugai, published 2026).
Each block holds one binder with its values, some of them ahead of it.

Target: T1, FcγRIIIa (human, UniProt P08637 17-208)
T1 construct: extracellular domain; also called 3a; FcγRIIIa extracellular domain
Assay: SPR (Biacore);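 note: antibody variants captured on an SPR sensor chip, with FcγRIIIa passed over as analyte in HBS-EP+ buffer at 25 °C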

T1 sequence (P08637 other isoform, or with tags, fused parts or gaps): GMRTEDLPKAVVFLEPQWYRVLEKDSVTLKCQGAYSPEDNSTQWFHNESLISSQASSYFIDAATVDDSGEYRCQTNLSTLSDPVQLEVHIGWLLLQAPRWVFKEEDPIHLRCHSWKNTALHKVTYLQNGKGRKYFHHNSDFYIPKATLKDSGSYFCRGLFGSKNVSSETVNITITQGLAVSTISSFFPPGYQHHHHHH

He/Con 3a: 50.5 % of GpH7-A5/GpH7-B3/GpL16-k0
B1: GpH7-A5/GpH7-B3 variant D270_02A/GpL16-k0 (antibody, human IgG1, kappa)
heavy 1: not shown
heavy 2: not shown
light: DIVMTQSPLSLPVTPGEPASISCQASESLVHSNRNTYLHWYLQKPGQSPQLLIYKVSNRFSGVPDRFSGSGSGTDFTLKISRVEAEDVGVYYCSQNTHVPPTFGQGTKVEIERTVAAPSVFIFPPSDEQLKSGTASVVCLLNNFYPREAKVQWKVDNALQSGNSQESVTEQDSKDSTYSLSSTLTLSKADYEKHKVYACEVTHQGLSSPVTKSFNRGEC
notes: copies: 1 + 1 + 2

He/Con 3a: 144 % of GpH7-A5/GpH7-B3/GpL16-k0
B2: GpH7-A5/GpH7-B3 variant A330_04F/GpL16-k0 (antibody, human IgG1, kappa)
heavy 1: not shown
heavy 2: not shown
light: B1 light
notes: copies: 1 + 1 + 2

He/Con 3a: 67.3 % of GpH7-A5/GpH7-B3/GpL16-k0
B3: GpH7-A5/GpH7-B3 variant A330_18N/GpL16-k0 (antibody, human IgG1, kappa)
heavy 1: not shown
heavy 2: not shown
light: B1 light
notes: copies: 1 + 1 + 2

He/Con 3a: 91.8 % of GpH7-A5/GpH7-B3/GpL16-k0
B4: GpH7-A5/GpH7-B3 variant A330_11K/GpL16-k0 (antibody, human IgG1, kappa)
heavy 1: not shown
heavy 2: not shown
light: B1 light
notes: copies: 1 + 1 + 2

He/Con 3a: 55.4 % of GpH7-A5/GpH7-B3/GpL16-k0
B5: GpH7-A5/GpH7-B3 variant D270_14T/GpL16-k0 (antibody, human IgG1, kappa)
heavy 1: not shown
heavy 2: not shown
light: B1 light
notes: copies: 1 + 1 + 2

He/Con 3a: 63.1 % of GpH7-A5/GpH7-B3/GpL16-k0
B6: GpH7-A5/GpH7-B3 variant D270_07I/GpL16-k0 (antibody, human IgG1, kappa)
heavy 1: not shown
heavy 2: not shown
light: B1 light
notes: copies: 1 + 1 + 2

He/Con 3a: 51.4 % of GpH7-A5/GpH7-B3/GpL16-k0
B7: GpH7-A5/GpH7-B3 variant D270_13S/GpL16-k0 (antibody, human IgG1, kappa)
heavy 1: not shown
heavy 2: not shown
light: B1 light
notes: copies: 1 + 1 + 2

He/Con 3a: 86 % of GpH7-A5/GpH7-B3/GpL16-k0
B8: GpH7-A5/GpH7-B3 variant A327_09D/GpL16-k0 (antibody, human IgG1, kappa)
heavy 1: not shown
heavy 2: not shown
light: B1 light
notes: copies: 1 + 1 + 2

He/Con 3a: 57.2 % of GpH7-A5/GpH7-B3/GpL16-k0
B9: GpH7-A5/GpH7-B3 variant E269_18N/GpL16-k0 (antibody, human IgG1, kappa)
heavy 1: not shown
heavy 2: not shown
light: B1 light
notes: copies: 1 + 1 + 2

He/Con 3a: 122 % of GpH7-A5/GpH7-B3/GpL16-k0
B10: GpH7-A5/GpH7-B3 variant A330_15Y/GpL16-k0 (antibody, human IgG1, kappa)
heavy 1: not shown
heavy 2: not shown
light: B1 light
notes: copies: 1 + 1 + 2

He/Con 3a: 56.4 % of GpH7-A5/GpH7-B3/GpL16-k0
B11: GpH7-A5/GpH7-B3 variant A330_09D/GpL16-k0 (antibody, human IgG1, kappa)
heavy 1: not shown
heavy 2: not shown
light: B1 light
notes: copies: 1 + 1 + 2

He/Con 3a: 102 % of GpH7-A5/GpH7-B3/GpL16-k0
B12: GpH7-A5/GpH7-B3 variant A330_20W/GpL16-k0 (antibody, human IgG1, kappa)
heavy 1: not shown
heavy 2: not shown
light: B1 light
notes: copies: 1 + 1 + 2

He/Con 3a: 100 % of GpH7-A5/GpH7-B3/GpL16-k0
B13: GpH7-A5/GpH7-B3 variant E333_07I/GpL16-k0 (antibody, human IgG1, kappa)
heavy 1: not shown
heavy 2: not shown
light: B1 light
notes: copies: 1 + 1 + 2

He/Con 3a: 100 % of GpH7-A5/GpH7-B3/GpL16-k0
B14: GpH7-A5/GpH7-B3 variant E333_05P/GpL16-k0 (antibody, human IgG1, kappa)
heavy 1: not shown
heavy 2: not shown
light: B1 light
notes: copies: 1 + 1 + 2

He/Con 3a: 100 % of GpH7-A5/GpH7-B3/GpL16-k0
B15: GpH7-A5/GpH7-B3 variant E333_06M/GpL16-k0 (antibody, human IgG1, kappa)
heavy 1: not shown
heavy 2: not shown
light: B1 light
notes: copies: 1 + 1 + 2

He/Con 3a: 60 % of GpH7-A5/GpH7-B3/GpL16-k0
B16: GpH7-A5/GpH7-B3 variant D270_06M/GpL16-k0 (antibody, human IgG1, kappa)
heavy 1: not shown
heavy 2: not shown
light: B1 light
notes: copies: 1 + 1 + 2

He/Con 3a: 86.3 % of GpH7-A5/GpH7-B3/GpL16-k0
B17: GpH7-A5/GpH7-B3 variant A330_19Q/GpL16-k0 (antibody, human IgG1, kappa)
heavy 1: not shown
heavy 2: not shown
light: B1 light
notes: copies: 1 + 1 + 2

He/Con 3a: 85.8 % of GpH7-A5/GpH7-B3/GpL16-k0
B18: GpH7-A5/GpH7-B3 variant A330_14T/GpL16-k0 (antibody, human IgG1, kappa)
heavy 1: not shown
heavy 2: not shown
light: B1 light
notes: copies: 1 + 1 + 2

He/Con 3a: 54 % of GpH7-A5/GpH7-B3/GpL16-k0
B19: GpH7-A5/GpH7-B3 variant A327_06M/GpL16-k0 (antibody, human IgG1, kappa)
heavy 1: not shown
heavy 2: not shown
light: B1 light
notes: copies: 1 + 1 + 2

He/Con 3a: 51.2 % of GpH7-A5/GpH7-B3/GpL16-k0
B20: GpH7-A5/GpH7-B3 variant D270_18N/GpL16-k0 (antibody, human IgG1, kappa)
heavy 1: not shown
heavy 2: not shown
light: B1 light
notes: copies: 1 + 1 + 2

He/Con 3a: 68 % of GpH7-A5/GpH7-B3/GpL16-k0
B21: GpH7-A5/GpH7-B3 variant E269_02A/GpL16-k0 (antibody, human IgG1, kappa)
heavy 1: not shown
heavy 2: not shown
light: B1 light
notes: copies: 1 + 1 + 2

He/Con 3a: 50.7 % of GpH7-A5/GpH7-B3/GpL16-k0
B22: GpH7-A5/GpH7-B3 variant E269_16H/GpL16-k0 (antibody, human IgG1, kappa)
heavy 1: not shown
heavy 2: not shown
light: B1 light
notes: copies: 1 + 1 + 2

He/Con 3a: 52.6 % of GpH7-A5/GpH7-B3/GpL16-k0
B23: GpH7-A5/GpH7-B3 variant A327_20W/GpL16-k0 (antibody, human IgG1, kappa)
heavy 1: not shown
heavy 2: not shown
light: B1 light
notes: copies: 1 + 1 + 2

He/Con 3a: 101 % of GpH7-A5/GpH7-B3/GpL16-k0
B24: GpH7-A5/GpH7-B3 variant A330_07I/GpL16-k0 (antibody, human IgG1, kappa)
heavy 1: not shown
heavy 2: not shown
light: B1 light
notes: copies: 1 + 1 + 2

He/Con 3a: 106 % of GpH7-A5/GpH7-B3/GpL16-k0
B25: GpH7-A5/GpH7-B3 variant E269_09D/GpL16-k0 (antibody, human IgG1, kappa)
heavy 1: not shown
heavy 2: not shown
light: B1 light
notes: copies: 1 + 1 + 2

He/Con 3a: 108 % of GpH7-A5/GpH7-B3/GpL16-k0
B26: GpH7-A5/GpH7-B3 variant E333_02A/GpL16-k0 (antibody, human IgG1, kappa)
heavy 1: not shown
heavy 2: not shown
light: B1 light
notes: copies: 1 + 1 + 2

He/Con 3a: 87.3 % of GpH7-A5/GpH7-B3/GpL16-k0
B27: GpH7-A5/GpH7-B3 variant A330_01G/GpL16-k0 (antibody, human IgG1, kappa)
heavy 1: not shown
heavy 2: not shown
light: B1 light
notes: copies: 1 + 1 + 2

He/Con 3a: 59.7 % of GpH7-A5/GpH7-B3/GpL16-k0
B28: GpH7-A5/GpH7-B3 variant E269_14T/GpL16-k0 (antibody, human IgG1, kappa)
heavy 1: not shown
heavy 2: not shown
light: B1 light
notes: copies: 1 + 1 + 2

He/Con 3a: 57.9 % of GpH7-A5/GpH7-B3/GpL16-k0
B29: GpH7-A5/GpH7-B3 variant E269_06M/GpL16-k0 (antibody, human IgG1, kappa)
heavy 1: not shown
heavy 2: not shown
light: B1 light
notes: copies: 1 + 1 + 2

He/Con 3a: 64.3 % of GpH7-A5/GpH7-B3/GpL16-k0
B30: GpH7-A5/GpH7-B3 variant E269_19Q/GpL16-k0 (antibody, human IgG1, kappa)
heavy 1: not shown
heavy 2: not shown
light: B1 light
notes: copies: 1 + 1 + 2

He/Con 3a: 70.5 % of GpH7-A5/GpH7-B3/GpL16-k0
B31: GpH7-A5/GpH7-B3 variant A327_10E/GpL16-k0 (antibody, human IgG1, kappa)
heavy 1: not shown
heavy 2: not shown
light: B1 light
notes: copies: 1 + 1 + 2
